{"source": "a protein production outcome set (Wang et al. 2014)", "test": "label from the status in PepcDB records", "data": [{"sequence": "MNALAVRWNDWPITRKSLAVVTLPLLLLAVALMAIYSVERQNIAAENDVRQTLEVLSDLYEAHALLAETAAGVRGYRLVRRDEFLTPYRDAEPRLQRVADRLSQRITDPSQAQRFARIKPLFAEKMQGWRRLLAPDLSREEEIRQLWDGKYKLDILRAELRELRNYETAQLQVRTAKAQGLRQRNLIITLSAAMLGGLGAVFAVAWFASALSGRLRTLAANADRLGEGLPLAPQPRAGDELGQVGQRLAQASELLAARAAEAQLARREAETANRAKTEFLSRSSHELRTPLNAILGYAQVLEMDLPEPGHRRHLRHILGAGRHLLGLITELLDIARIEADQLDLSPEPISVRAAVHEALGLIAPDADKHGIALQPASIDGPWTVRADAQRLRQVLLNLLSNAVKFNRTGGQVQVSAQADGEQVRITVADQGAGLTPAQIERLFTPFERLGAERSAVEGTGLGLALSKRLIEAMGGQIGVDSSSDGARFWISLPQGEHQHSEPTRPLVPPSNAGSGVCRLLSIEDNPSNQALIRTLTERRPQWQLLEAASLAQARELLQHGAPDLILLDLHLSDGNGEELLRELQAQPAMAAIPVVVISADATSATLARVGNQGVRAYLTKPLDVAEFFTVIDGLLA", "values": [{"measurement": "protein production", "value": "not failed"}]}, {"sequence": "MGDPFLIGGVIIACFVAFNIGGATTGPAFGPAVGANVLSKTTAGALMAVAFFGGAYTIGRRVVDTLGTELVHDPSVFTLEASIIVLFFIGGALLVGNLSGAPASTSMTAVGAIIGLGLASGELNFAVVGEILAWWILSPIIGFWLAVMVGRYGYEALDRRVAIEQSDGPLLAFERVELGRWPVVRLRESPVVRMERISPKLWPALGPNTSWREAVGTAVLVSIGFLMAFSSGTSNIANAIAPLVGSGALAMNPGILIGCGAVAVGALTIARRTMETLGNDITDLPLTAAIVVALLSSLIIIALSALGIPASFVVVATLCIIGLGWGRSTQAVSVAEAVRGDVSPQVSVGALARGDDATVGTVRSQSAPQGASRRTAPVRSDLFDPGTSVRVVLMQNVVPLLATGGSYLTFWLLPVGG", "values": [{"measurement": "protein production", "value": "failed"}]}, {"sequence": "KLLAEALELTEDQYVVSFQSQFGRAKWVTPSTQDLFGKLPKQGVTELDVFCPGFLADCLETMEEIALMGREQFYEAGGKSYRYIPCLNDNPDWIDALVALAEENLGSWR", "values": [{"measurement": "protein production", "value": "failed"}]}, {"sequence": "MKSLWSDADAAECVERLGLLGLPPELGLRTYSARLLGSNPKLVLHGGGNTSVKLNINDLFGNPVQVMCIKGSGQDLATITASGHPAVRLAPLQQLKVLDHLSDEDMVNILRTNLLDCRAPTPSVEALLHAFVDRPVIDHTHAVAAMVIADQPDGDRLCRYIYGERVLWIPYVMSGFALSLAVERAFRAYPDAEGMLLGKHGLCTFGESAKASYERMITFVTLAENFIESRRAIYSPPVITPPAKPNNLADMAHIAPYLRAAFARSSAISEKKHWIFDLRTDPKSLAFSSGLGTSDIAQRGVATPDHVIRMKGRPVVLDAPDLNNLGDWAAQTQTKIAAFVERYQHYFHRNNARFERGKIALDALPRAIVIPYLGVVGAGRTAEDAAINADIIESWLDVVTDATVCGDYEPIGEADEFDMEYWSLEQAKIDKASVKPLQGQIVVVTGAGGGIGAAIAKEFSLLGAELAVLDIDSESAKNVAAQLGPHALALQCDVTETASVQAAFETIATRFGGVDIVVSNAGVALSGAIAELPEATLRTSFEVNFFAHQRVAQQAVSIMKKQGIGGVLLFNISKQAINPGINFGAYGTSKAALLSLVRQYALEQGQDSIRVNAVNADRIRSGLLDDEMISLRARARGLSEEKYMAGNLLGQEVTAQDVAKAFVVSAMLDKSTGNVITVDGGNVAAMLR", "values": [{"measurement": "protein production", "value": "failed"}]}, {"sequence": "RERLLSEAKATLQNYVAIAMTAIKPLYDAAAPGDEAARANAIKLLSAVSYGKDGYLFGYDSQVVRIFRSTSPDGLGKSFVDARDANGVYINR", "values": [{"measurement": "protein production", "value": "failed"}]}, {"sequence": "TPVVFLGAGNLATNLAKALYRKGFRIMQVYSRTEESARTLANEVEAEYITDLKDVSNEARLYIISLKDAAFVELLPQITDGKQHALLVHTAGSIPMNIWEGHAERYGVFYPMQTFSKQREVDFREVPFFIEAKRPEDTELLKAVAGTLSDKVYEAD", "values": [{"measurement": "protein production", "value": "failed"}]}, {"sequence": "MPDTPLLASSQPAAGRRALGLSARLAFAALAGGGGLAWIDRGDTALWLIAPALLWLQVLLTLAGVLALAGGSRLPGALIVALSAGLLVPPLTVEMRLLGFFLAAPPPDQSILTTAQYTLAGALAAGALAWILARRRFGRPPCSWTMLDCGGPGAEIDMDAALASLSAETLRRRDRAYIDAPPPLPFAPRGPPRPPPPTLGGPRLKRMPAGLGGAILCLESDDHTLRVHTTQGSGTLAGRLGDAALDLGESAGLRVHRSWWVAREAVSAIERDGRRMRLILLNGMDVPVSRAHQPKVLAGPWPNLRVS", "values": [{"measurement": "protein production", "value": "failed"}]}, {"sequence": "MPHPATMFFLFTLAVIFLSWIFDIYGLRVQLPQTGAEIRVQSLLSPEGIRWMLRNAITNFTGFAPLGMVLIAMFGIGVAQHSGFIDACVRQGVKNRKNTKRIILWVIILGLLSNIVGDAGYIILLPIAATLFYSVGLNPVAGIITAYVSVSCGYSANVVLSTMDPLIARTTQEAAIDSGVYQGNTGPLCNYYFMSVSTFVIGAIIYRITCKRLIPSLGQYEGKQIFEGYKQLSRKERRAMTMAIVMGMLYAAIILWATFSSWGILRGVNGGLIRSPFIMGILFLLSLGAAIMGMVYGFSSGRYRSDNDVIEGLAQPMKLLGGYLVIAFFAAQMFACLEYSHLDKCVAIIGANLLSSVQADPLWTLILFILFTATINLIMVSATAKWAFMAFIFVPVFARMGIEPDMTQCAFRIGDSATNAITPFMFYMPLVLTYMQQYDKQATYGSLLKYTWRYSVYILIGWTMLLFIWYLTGLPLGL", "values": [{"measurement": "protein production", "value": "failed"}]}, {"sequence": "MFRRPRLRALSALVLAALTLPAVAQQVLIRGATVHTATSQGTLRNTDVLVQGGVIRAIGTGLAVPTHGRVVEAKGRPLTPALFGGITEIGIEEVSGEAATVDSGVKLTEQPMRPEFDVTLAYNPDSVLIPVARVEGIGFTALGATTSGAFIAGQGGIVRLDGGPDPVGPHALFVRLGAAASDLTGSSRAAQWMLLDQLVAEARGRVPADSPHALLTPVGRSVLANYLAGRGRIVVQVERAADIRQLLRWAQREKVRIAIAGGTEAWKLAPQLAQAKVPVLVDALADLPSTFDQIGATLENAARLRAAGVEVSFTQSGDASHNARKLRQLAGNAVANGLPWESGLAGLTRVPAEIFGVGDRIGSIAVGKQADLVLWDGDPLDVAHYAEQVWMGGRDMPMRSRQTDLRDRYLQQAGPLPRAYQR", "values": [{"measurement": "protein production", "value": "failed"}]}, {"sequence": "MINKPNQFVNHLSALKKHFASYKELREAFNDYHKHNGDELTTFFLHQFDKVMELVKQKDFKTAQSRCEEELAAPYLPKPLVSFFQSLLQLVNHDLLEQQNAALASLPAAKIIELVLQDYPNKLNMIHYLLPKTKAFVKPHLLQRLQFVLTDSELLELKRFSFFQALNQIPGFQGEQVEYFNSKLKQKFTLTLGEFEIAQQPDAKAYFEQLITQIQQLFLKEPVNAEFANEIIDAFLVSYFPLHPPVPLAQLAAKIYEYVSQIVLNEAVNLKDELIKLIVHTLYEQLDRPVGDEN", "values": [{"measurement": "protein production", "value": "not failed"}]}, {"sequence": "MIRTAKRTELIEVAQGRRPADIVIKGGTVVNVYSGEFLRQNVAIYHDAIAYVGEKEVAVDEHTIVIDAEGMYVSPGFIEPHAHPWVLYNPVSMTAKVLPLGTTTTVNDNLFFYLHFGVDGFRQLIEDLRVLPGHFFWLVRLVSQADFPGERDWFDPRHIQELLAMDEVVGTAEVTRWPLLYQGDPFLLETIEAAKRAGKVVDGHTAGCSYEKLNSIAASGVSACHEAITAEEALHRLRLGMWTTLRHSSLRPDFPEIIRLITEKKVSTQRITMTTDGPHPGFIEREGFVDGLVRKAVELGVPPMTALQMATINAATYLQLDDEIGGIAPGKLADILLLPDLVTFQPSLVIAKGRIVARDGKLLAPLPEIDWKRYVSKKPFLFAKERLDDERLYRYPHSESDQPVPVMYFKSNVITERKDVALPSVDGYADLSHHPGLLYAALIDRNGQWVAKAILERFALDIDGMASTYNTTTELLVIGKQPEAMAAAAKRVLEMGGGIVVIDGGRPVVEIPLPFTGMMTTDDSFDTAVRFHDELLSALQERGFPFHDILYTLLFLTCDFLPGLRLIPYGLYDVKRNEILLPAEKIGEKVVK", "values": [{"measurement": "protein production", "value": "failed"}]}, {"sequence": "MSSITADNAGQYGDSRKLAARARLHSQYTIAETAWFPWVAAQLSLKPGDRVLDVGCGPAWFWAATTGLLPADLDLTLTDLSPGMVDEAVARCSALPFGSVRGCQADAAALPFEDGAFDAVVAMHMLYHLTDPVAGIADMSRVLKPGGLLAVTTNGAGNMREIYALTTLFGSAPSDPAAEAFGYDAAERSMRSQFGNVTMSQHPASLRITEPEDVFLALTSYPPGDGAGEPQLTRFRQAIADAFSQRSGVLEVSKETALFLSRKTV", "values": [{"measurement": "protein production", "value": "failed"}]}, {"sequence": "MTLLQQIMWGSLYLGLCFVVEVLLLVWCTLVIVHLSIRLRHLSRAMRTAAVISVSLAFIVLAHTLQVWLWAGVWIWSDVLTDWNEALYFSLVTYTTLGYGDIVLGPGLRIFAAFAAVAGLLAFGLSTAYLVALMSRVFEGRLPR", "values": [{"measurement": "protein production", "value": "failed"}]}, {"sequence": "MEKALTKVTSFKVGSSWISKKAKEELSNITNDLTTFSSTVEEKAKWIFNKLKGKPLKSLPDLLKEYNLPPGLFPQNIICYEFDETKNKLTVFFSSPCEVTFKDGSAIRYATRVKGILLRGKLMGVEGMKTKVLVWVKVTTISVESSKSDKLWFTAGVKKSRSKDVYDTPHDAIKVIGEF", "values": [{"measurement": "protein production", "value": "failed"}]}, {"sequence": "MVSVNSSHCFYNDSFKYTLYGCMFSMVFVLGLISNCVAIYIFICVLKVRNETTTYMINLAMSDLLFVFTLPFRIFYFTTRNWPFGDLLCKISVMLFYTNMYGSILFLTCISVDRFLAIVYPFKSKTLRTKRNAKIVCTGVWLTVIGGSAPAVFVQSTHSQGNNASEACFENFPEATWKTYLSRIVIFIEIVGFFIPLILNVTCSSMVLKTLTKPVTLSRSKINKTKVLKMIFVHLIIFCFCFVPYNINLILYSLVRTQTFVNCSVVAAVRTMYPITLCIAVSNCCFDPIVYYFTSDTIQNSIKMKNWSVRRSDFRFSEVHGAENFIQHNLQTLKSKIFDNESAA", "values": [{"measurement": "protein production", "value": "failed"}]}, {"sequence": "MKFALQINEGPYQHQASDSAYQFAKAALEKGHEIFRVFFYHDGVNNSTRLTTPPQDDRHIVNRWAELAEQYELDMVVCVAAAQRRGIVDEGEASRNGKDATNIHPKFRISGLGQLVEAAIQADRLVVFGD", "values": [{"measurement": "protein production", "value": "not failed"}]}, {"sequence": "MLRGCGKLKKNLPCSVHTETPIVLKTTARFLLGLSLVLLSSSVATAQVVLPRTLELNAKEMEQNGFVVAQEALQLAQFQQFEDALVRAKLAVQLAPRAHEIWALLGGLYLTVNQPKDAVPALEQSLKLNDKNPGAYFNLGSAHFRLGRYDAAARAIEQGLALKPNATEEWFNLGNAYLKLGQKDRAIEQYRRSLRLDRRFWPAYTNIGLVLYEQGHIRQAVKNWEQAADIDPKASEPKLALATALLQLGNEARALQLAEEALRLDSRYGTVEFQRENLWGDRLVADTQILLAKPPLRALMSQLQPEQSALPQP", "values": [{"measurement": "protein production", "value": "failed"}]}, {"sequence": "FQKYQYPIYYGNAIFLADSPKKIDTPLYSPIKIAFEKALKNAKDSVFIASSYFIPGKKMMKIFKNQISKGIELNILTNSLSSTDAIVVYGAWERYRNQLVRMGANVYEIRNDFFNRQIKGRFSTKHSLHGKTIVFDDNLTLLGSFNIDPRSAYINTESAVLFDNPSFAKRVRLSLKDHAQQSWHLVVYRHRVIWEAVEEGILIHEKTSPDTSFFLRLIKEWSKVLPEREL", "values": [{"measurement": "protein production", "value": "failed"}]}, {"sequence": "MNHAITMGIFWHLIGAASAACFYAPFKKVKHWSWETMWSVGGIVSWLILPWAISATLLPDFWAYYRSFSASTLLPVFLFGAMWGIGNINYGLTMRYLGMSMGIGIAIGITLIVGTLMTPIINGQFAVLMHTQGGQMTLLGVLVAVIGVGIVTRAGQLKERKMGIKAEEFNLKKGLLLAVMCGIFSAGMSFAMNAAKPMHDAAAALGVDPLYAALPSYVVIMGGGALVNLGFCFIRLAKVKNLSVKADFSLAKPLIISNLLLSALGGLMWYLQFFFYAWGHASIPAQYDYMSWMLHMSFYVLCGGVVGLVLKEWNNAGRRPVSVLSLGCVVIIIAANIVGLGMAS", "values": [{"measurement": "protein production", "value": "failed"}]}]}
